Experimental data taken from article PMC11167270 (Heliyon, 2024).

Columns and labels:
[1] = molecular target: Sac10b2 (Sulfolobus acidocaldarius); assay: AUC
[2] = molecular target: the molecule itself; assay: AUC

Molecule	stoichiometry N [2]	other results
Sac10b2 (natural protein)	–	stoichiometry N [1]: 2
Sac10b1 (natural protein, Sulfolobus acidocaldarius) MSSGATPSNVVLVGKKPVMNYVLAALTLLNQGVSEITIKARGRAISKAVDTVEIVRNRFLPDKIEVKEIRIGSQVVTSQDGRQSRVSTIEIGIRKKA	2	–
Sac10b1 F59A (natural protein, Sulfolobus acidocaldarius) MSSGATPSNVVLVGKKPVMNYVLAALTLLNQGVSEITIKARGRAISKAVDTVEIVRNRALPDKIEVKEIRIGSQVVTSQDGRQSRVSTIEIGIRKKA	2	–
Sac10b1 R58A (natural protein, Sulfolobus acidocaldarius) MSSGATPSNVVLVGKKPVMNYVLAALTLLNQGVSEITIKARGRAISKAVDTVEIVRNAFLPDKIEVKEIRIGSQVVTSQDGRQSRVSTIEIGIRKKA	–	binding result [2]: binds
